The source of these data is publication PMC4018121.

For the series, the target named is rhSTIP1 (stress-induced phosphoprotein 1) (Homo sapiens, UniProt P31948 1-543). Put plainly: aptamer blot on nitrocellulose, chemiluminescence.

B1: TOV6 (structured_DNA)
DNA: ATCCAGAGTGACGCAGCACGGCACTCACTCTTTGTTAAGTGGTCTGCTTCTTAACCTTCATCGACACGGTGGCTTA
On to B1, for which the binding result is “binds”.
